The target in this assay is cell surface F1Fo-ATPase (human). Description: cell-based or functional assay.

In the case of “apoA-I purified from human plasma (from UniProt P02647 25-267) (ligand)”, the HDL endocytosis by HepG2 cells (HDL-Alexa568 uptake), apoA-I 10 µg/mL, versus non-stimulated cells was 45%.

These data come from patent publication US20230050846A1, “TREATMENT OF HEPATIC AND CARDIOVASCULAR DISORDERS” (LIFESEARCH, priority 2019, published 2023).
